The target of series [1] is Fibroblast growth factor receptor (human (endogenous in MCF-7)) (UniProt P11362). Kind of series: Western blot of cell lysates for the receptor dimer.
Substrate in series [2]: CC(=O)N[C@H]1[C@H]([C@H](O)[C@H](O)CO)O[C@](OP(=O)(O)OC[C@H]2O[C@@H](n3ccc(N)nc3=O)[C@H](O)[C@@H]2O)(C(=O)O)C[C@@H]1O
Kind of series: purified protein. The note with it: donor substrate; acceptor type II LacNAc.

As for “Fibroblast growth factor receptor (from UniProt P11362 22-822)”, in series [1], the stoichiometry N was 2.

B1: recombinant human ST3Gal-IV (α2,3-sialyltransferase) (Homo sapiens) (protein)
chain: REDRYIELFYFPIPEKKEPCLQGEAESKASKLFGNYSRDQPIFLRLEDYFWVKTPSAYELPYGTKGSEDLLLRVLAITSSSIPKNIQSLRCRRCVVVGNGHRLRNSSLGDAINKYDVVIRLNNAPVAGYEGDVGSKTTMRLFYPESAHFDPKVENNPDTLLVLVAFKAMDFHWIETILSDKKRVRKGFWKQPPLIWDVNPKQIRILNPFFMEIAADKLLSLPMQQPRKIKQKPTTGLLAITLALHLCDLVHIAGFGYPDAYNKKQTIHYYEQITLKSMAGSGHNVSQEALAIKRMLEMGAIKNLTSF
On to B1, for which, in series [2], the Michaelis-Menten constant (Km) worked out at 73.4 µM.

The values above are taken from PMC5779621.
